Reference: paper PMC5095800, “A standardized production pipeline for high profile targets from Mycobacterium tuberculosis” (Proteomics. Clinical Applications, 2016)

Biological target: the molecule itself
Assay: SEC

B1: Ferritin BfrB (natural protein)
chain: MTEYEGPKTKFHALMQEQIHNEFTAAQQYVAIAVYFDSEDLPQLAKHFYSQAVEERNHAMMLVQHLLDRDLRVEIPGVDTVRNQFDRPREALALALDQERTVTDQVGRLTAVARDEGDFLGEQFMQWFLQEQIEEVALMATLVRVADRAGANLFELENFVAREVDVAPAASGAPHAAGGRL
notes: also called Rv3841; copies: 24
  stoichiometry N: 24
